Measurements published in publication PMC10540216, “Activity Guided Azide-methyllysine Photo-trapping for Substrate Profiling of Lysine Demethylases” (Journal of the American Chemical Society, 2023).

B1: MCM3_HUMAN (protein, UniProt P25205 2-808, looked up)
DNA replication licensing …: AGTVVLDDVELREAQRDYLDFLDDEEDQGIYQSKVRELISDNQYRLIVNVNDLRRKNEKRANRLLNNAFEELVAFQRALKDFVASIDATYAKQYEEFYVGLEGSFGSKHVSPRTLTSCFLSCVVCVEGIVTKCSLVRPKVVRSVHYCPATKKTIERRYSDLTTLVAFPSSSVYPTKDEENNPLETEYGLSVYKDHQTITIQEMPEKAPAGQLPRSVDVILDDDLVDKAKPGDRVQVVGTYRCLPGKKGGYTSGTFRTVLIACNVKQMSKDAQPSFSAEDIAKIKKFSKTRSKDIFDQLAKSLAPSIHGHDYVKKAILCLLLGGVERDLENGSHIRGDINILLIGDPSVAKSQLLRYVLCTAPRAIPTTGRGSSGVGLTAAVTTDQETGERRLEAGAMVLADRGVVCIDEFDKMSDMDRTAIHEVMEQGRVTIAKAGIHARLNARCSVLAAANPVYGRYDQYKTPMENIGLQDSLLSRFDLLFIMLDQMDPEQDREISDHVLRMHRYRAPGEQDGDAMPLGSAVDILATDDPNFSQEDQQDTQIYEKHDNLLHGTKKKKEKMVSAAFMKKYIHVAKIIKPVLTQESATYIAEEYSRLRSQDSMSSDTARTSPVTARTLETLIRLATAHAKARMSKTVDLQDAEEAVELVQYAYFKKVLEKEKKRKKRSEDESETEDEEEKSQEDQEQKRKRRKTRQPDAKDGDSYDPYDFSDTEEEMPQVHTPKTADSQETKESQKVELSESRLKAFKVALLDVFREAHAQSIGMNRLTESINRDSEEPFSSVEIQAALSKMQDDNQVMVSEGIIFLI
B2: ZC3HE_HUMAN (protein, UniProt Q6PJT7 1-736, looked up)
Zinc finger CCCH …: MEIGTEISRKIRSAIKGKLQELGAYVDEELPDYIMVMVANKKSQDQMTEDLSLFLGNNTIRFTVWLHGVLDKLRSVTTEPSSLKSSDTNIFDSNVPSNKSNFSRGDERRHEAAVPPLAIPSARPEKRDSRVSTSSQESKTTNVRQTYDDGAATRLMSTVKPLREPAPSEDVIDIKPEPDDLIDEDLNFVQENPLSQKKPTVTLTYGSSRPSIEIYRPPASRNADSGVHLNRLQFQQQQNSIHAAKQLDMQSSWVYETGRLCEPEVLNSLEETYSPFFRNNSEKMSMEDENFRKRKLPVVSSVVKVKKFNHDGEEEEEDDDYGSRTGSISSSVSVPAKPERRPSLPPSKQANKNLILKAISEAQESVTKTTNYSTVPQKQTLPVAPRTRTSQEELLAEVVQGQSRTPRISPPIKEEETKGDSVEKNQGTQQRQLLSRLQIDPVMAETLQMSQDYYDMESMVHADTRSFILKKPKLSEEVVVAPNQESGMKTADSLRVLSGHLMQTRDLVQPDKPASPKFIVTLDGVPSPPGYMSDQEEDMCFEGMKPVNQTAASNKGLRGLLHPQQLHLLSRQLEDPNGSFSNAEMSELSVAQKPEKLLERCKYWPACKNGDECAYHHPISPCKAFPNCKFAEKCLFVHPNCKYDAKCTKPDCPFTHVSRRIPVLSPKPAVAPPAPPSSSQLCRYFPACKKMECPFYHPKHCRFNTQCTRPDCTFYHPTINVPPRHALKWIRPQTSE
B3: TIF1B_HUMAN (protein, UniProt Q13263 2-835, looked up)
Transcription intermediary …: AASAAAASAAAASAASGSPGPGEGSAGGEKRSTAPSAAASASASAAASSPAGGGAEALELLEHCGVCRERLRPEREPRLLPCLHSACSACLGPAAPAAANSSGDGGAAGDGTVVDCPVCKQQCFSKDIVENYFMRDSGSKAATDAQDANQCCTSCEDNAPATSYCVECSEPLCETCVEAHQRVKYTKDHTVRSTGPAKSRDGERTVYCNVHKHEPLVLFCESCDTLTCRDCQLNAHKDHQYQFLEDAVRNQRKLLASLVKRLGDKHATLQKSTKEVRSSIRQVSDVQKRVQVDVKMAILQIMKELNKRGRVLVNDAQKVTEGQQERLERQHWTMTKIQKHQEHILRFASWALESDNNTALLLSKKLIYFQLHRALKMIVDPVEPHGEMKFQWDLNAWTKSAEAFGKIVAERPGTNSTGPAPMAPPRAPGPLSKQGSGSSQPMEVQEGYGFGSGDDPYSSAEPHVSGVKRSRSGEGEVSGLMRKVPRVSLERLDLDLTADSQPPVFKVFPGSTTEDYNLIVIERGAAAAATGQPGTAPAGTPGAPPLAGMAIVKEEETEAAIGAPPTATEGPETKPVLMALAEGPGAEGPRLASPSGSTSSGLEVVAPEGTSAPGGGPGTLDDSATICRVCQKPGDLVMCNQCEFCFHLDCHLPALQDVPGEEWSCSLCHVLPDLKEEDGSLSLDGADSTGVVAKLSPANQRKCERVLLALFCHEPCRPLHQLATDSTFSLDQPGGTLDLTLIRARLQEKLSPPYSSPQEFAQDVGRMFKQFNKLTEDKADVQSIIGLQRFFETRMNEAFGDTKFSAVLVEPPPMSLPGAGLSSQELSGGPGDGP
B4: SC23A_HUMAN (protein, UniProt Q15436 2-765, looked up)
Protein transport protein …: TTYLEFIQQNEERDGVRFSWNVWPSSRLEATRMVVPVAALFTPLKERPDLPPIQYEPVLCSRTTCRAVLNPLCQVDYRAKLWACNFCYQRNQFPPSYAGISELNQPAELLPQFSSIEYVVLRGPQMPLIFLYVVDTCMEDEDLQALKESMQMSLSLLPPTALVGLITFGRMVQVHELGCEGISKSYVFRGTKDLSAKQLQEMLGLSKVPLTQATRGPQVQQPPPSNRFLQPVQKIDMNLTDLLGELQRDPWPVPQGKRPLRSSGVALSIAVGLLECTFPNTGARIMMFIGGPATQGPGMVVGDELKTPIRSWHDIDKDNAKYVKKGTKHFEALANRAATTGHVIDIYACALDQTGLLEMKCCPNLTGGYMVMGDSFNTSLFKQTFQRVFTKDMHGQFKMGFGGTLEIKTSREIKISGAIGPCVSLNSKGPCVSENEIGTGGTCQWKICGLSPTTTLAIYFEVVNQHNAPIPQGGRGAIQFVTQYQHSSGQRRIRVTTIARNWADAQTQIQNIAASFDQEAAAILMARLAIYRAETEEGPDVLRWLDRQLIRLCQKFGEYHKDDPSSFRFSETFSLYPQFMFHLRRSSFLQVFNNSPDESSYYRHHFMRQDLTQSLIMIQPILYAYSFSGPPEPVLLDSSSILADRILLMDTFFQILIYHGETIAQWRKSGYQDMPEYENFRHLLQAPVDDAQEILHSRFPMPRYIDTEHGGSQARFLLSKVNPSQTHNNMYAWGQESGAPILTDDVSLQVFMDHLKKLAVSSAA
B5: SRC8_HUMAN (protein, UniProt Q14247 1-550, looked up)
Src substrate cortactin: MWKASAGHAVSIAQDDAGADDWETDPDFVNDVSEKEQRWGAKTVQGSGHQEHINIHKLRENVFQEHQTLKEKELETGPKASHGYGGKFGVEQDRMDKSAVGHEYQSKLSKHCSQVDSVRGFGGKFGVQMDRVDQSAVGFEYQGKTEKHASQKDYSSGFGGKYGVQADRVDKSAVGFDYQGKTEKHESQRDYSKGFGGKYGIDKDKVDKSAVGFEYQGKTEKHESQKDYVKGFGGKFGVQTDRQDKCALGWDHQEKLQLHESQKDYKTGFGGKFGVQSERQDSAAVGFDYKEKLAKHESQQDYSKGFGGKYGVQKDRMDKNASTFEDVTQVSSAYQKTVPVEAVTSKTSNIRANFENLAKEKEQEDRRKAEAERAQRMAKERQEQEEARRKLEEQARAKTQTPPVSPAPQPTEERLPSSPVYEDAASFKAELSYRGPVSGTEPEPVYSMEAADYREASSQQGLAYATEAVYESAEAPGHYPAEDSTYDEYENDLGITAVALYDYQAAGDDEISFDPDDIITNIEMIDDGWWRGVCKGRYGLFPANYVELRQ
B6: TF3C4_HUMAN (protein, UniProt Q9UKN8 1-822, looked up)
General transcription factor …: MNTADQARVGPADDGPAPSGEEEGEGGGEAGGKEPAADAAPGPSAAFRLMVTRREPAVKLQYAVSGLEPLAWSEDHRVSVSTARSIAVLELICDVHNPGQDLVIHRTSVPAPLNSCLLKVGSKTEVAECKEKFAASKDPTVSQTFMLDRVFNPEGKALPPMRGFKYTSWSPMGCDANGRCLLAALTMDNRLTIQANLNRLQWVQLVDLTEIYGERLYETSYRLSKNEAPEGNLGDFAEFQRRHSMQTPVRMEWSGICTTQQVKHNNECRDVGSVLLAVLFENGNIAVWQFQLPFVGKESISSCNTIESGITSPSVLFWWEYEHNNRKMSGLIVGSAFGPIKILPVNLKAVKGYFTLRQPVILWKEMDQLPVHSIKCVPLYHPYQKCSCSLVVAARGSYVFWCLLLISKAGLNVHNSHVTGLHSLPIVSMTADKQNGTVYTCSSDGKVRQLIPIFTDVALKFEHQLIKLSDVFGSVRTHGIAVSPCGAYLAIITTEGMINGLHPVNKNYQVQFVTLKTFEEAAAQLLESSVQNLFKQVDLIDLVRWKILKDKHIPQFLQEALEKKIESSGVTYFWRFKLFLLRILYQSMQKTPSEALWKPTHEDSKILLVDSPGMGNADDEQQEEGTSSKQVVKQGLQERSKEGDVEEPTDDSLPTTGDAGGREPMEEKLLEIQGKIEAVEMHLTREHMKRVLGEVYLHTWITENTSIPTRGLCNFLMSDEEYDDRTARVLIGHISKKMNKQTFPEHCSLCKEILPFTDRKQAVCSNGHIWLRCFLTYQSCQSLIYRRCLLHDSIARHPAPEDPDWIKRLLQSPCPFCDSPVF
B7: RNZ2_HUMAN (protein, UniProt Q9BQ52 17-826, looked up)
Zinc phosphodiesterase ELAC …: SQGRTISQAPARRERPRKDPLRHLRTREKRGPSGCSGGPNTVYLQVVAAGSRDSGAALYVFSEFNRYLFNCGEGVQRLMQEHKLKVARLDNIFLTRMHWSNVGGLSGMILTLKETGLPKCVLSGPPQLEKYLEAIKIFSGPLKGIELAVRPHSAPEYEDETMTVYQIPIHSEQRRGKHQPWQSPERPLSRLSPERSSDSESNENEPHLPHGVSQRRGVRDSSLVVAFICKLHLKRGNFLVLKAKEMGLPVGTAAIAPIIAAVKDGKSITHEGREILAEELCTPPDPGAAFVVVECPDESFIQPICENATFQRYQGKADAPVALVVHMAPASVLVDSRYQQWMERFGPDTQHLVLNENCASVHNLRSHKIQTQLNLIHPDIFPLLTSFRCKKEGPTLSVPMVQGECLLKYQLRPRREWQRDAIITCNPEEFIVEALQLPNFQQSVQEYRRSAQDGPAPAEKRSQYPEIIFLGTGSAIPMKIRNVSATLVNISPDTSLLLDCGEGTFGQLCRHYGDQVDRVLGTLAAVFVSHLHADHHTGLPSILLQRERALASLGKPLHPLLVVAPNQLKAWLQQYHNQCQEVLHHISMIPAKCLQEGAEISSPAVERLISSLLRTCDLEEFQTCLVRHCKHAFGCALVHTSGWKVVYSGDTMPCEALVRMGKDATLLIHEATLEDGLEEEAVEKTHSTTSQAISVGMRMNAEFIMLNHFSQRYAKVPLFSPNFSEKVGVAFDHMKVCFGDFPTMPKLIPPLKALFAGDIEEMEERREKRELRQVRAALLSRELAGGLEDGEPQQKRAHTEEPQAKKVRAQ
B8: FIP1_HUMAN (protein, UniProt Q6UN15 1-594, looked up)
Pre-mRNA 3'-end-processing …: MSAGEVERLVSELSGGTGGDEEEEWLYGGPWDVHVHSDLAKDLDENEVERPEEENASANPPSGIEDETAENGVPKPKVTETEDDSDSDSDDDEDDVHVTIGDIKTGAPQYGSYGTAPVNLNIKTGGRVYGTTGTKVKGVDLDAPGSINGVPLLEVDLDSFEDKPWRKPGADLSDYFNYGFNEDTWKAYCEKQKRIRMGLEVIPVTSTTNKITAEDCTMEVTPGAEIQDGRFNLFKVQQGRTGNSEKETALPSTKAEFTSPPSLFKTGLPPSRNSTSSQSQTSTASRKANSSVGKWQDRYGRAESPDLRRLPGAIDVIGQTITISRVEGRRRANENSNIQVLSERSATEVDNNFSKPPPFFPPGAPPTHLPPPPFLPPPPTVSTAPPLIPPPGFPPPPGAPPPSLIPTIESGHSSGYDSRSARAFPYGNVAFPHLPGSAPSWPSLVDTSKQWDYYARREKDRDRERDRDRERDRDRDRERERTRERERERDHSPTPSVFNSDEERYRYREYAERGYERHRASREKEERHRERRHREKEETRHKSSRSNSRRRHESEEGDSHRRHKHKKSKRSKEGKEAGSEPAPEQESTEATPAE

System: KDM4A-I71AzF
Assay: CASI: photo-crosslinking with HEK293T cell extracts, StrepTactin enrichment and LC-MS/MS proteomics;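 also: lysates from HEK293T cells pretreated with a KDM4 inhibitor to raise proteome methylation, affinity-purified after ±UV, gel-resolved, trypsin-digested, with exclusive unique peptides per protein averaged per condition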
Type: binding, human
Settings: sheet "Final results but with 0.01"

Molecule | Fold change (+UV/-UV)
B1 | 1.2
B2 | 4
B3 | 0.8
B4 | 0.5
B5 | 0.8
B6 | 0.6667
B7 | 0.5
B8 | 2
